Results from FireProtDB (doi:10.1021/bi060525p).

Conditions: Homo sapiens, pH 7.4, Thermal, Phosphate 10 mM

Chain of Hemoglobin subunit alpha wild type, P69905 (P69905 whole entry): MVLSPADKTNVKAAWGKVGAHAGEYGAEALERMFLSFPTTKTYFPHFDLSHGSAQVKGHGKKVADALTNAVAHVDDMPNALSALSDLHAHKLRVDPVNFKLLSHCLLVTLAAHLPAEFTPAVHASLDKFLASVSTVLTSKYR

Q: Which Tm (Absorbance) does the source give for “Hemoglobin subunit alpha wild type, P69905” here?
A: Its Tm is 71 °C.

Q: What about the Tm (CD) of the same substance?
A: Its Tm is 73 °C.

Q: What about the Tm (DSC) of the same substance?
A: The Tm was 75 °C.

Q: And the Tm (Optical Density)?
A: Its Tm is 58.7 °C.
